From patent publication US20230064196A1 come the findings set out here.

In assay [1] the target is canine PD-1 (canine). Put plainly: flow cytometry; row 1*10^4; Anti-mouse IgGFc-Alexa Fluor 647(1:500). (In general: Flow cytometry measures light scatter and fluorescence of single cells or particles in a stream.)
The target in assay [2] is human BTLA (human) (UniProt Q7Z6A9). The assay is described as above.
Assay [3] deals with canine PD-1 (canine). Put plainly: flow cytometry; row 1*10^5; Anti-mouse IgGFc-Alexa Fluor 647(1:500).
The target of assay [4] is human BTLA (human) (UniProt Q7Z6A9). The assay is described as above.
Assay [5] concerns the target canine PD-1 (canine). The assay can be described thus: flow cytometry; row 1*10^3; Anti-mouse IgGFc-Alexa Fluor 647(1:500).
In assay [6] the target is human BTLA (human) (UniProt Q7Z6A9). The description is as above.

UniProt Q7Z6A9, sequence (Q7Z6A9 31-157 limits assumed): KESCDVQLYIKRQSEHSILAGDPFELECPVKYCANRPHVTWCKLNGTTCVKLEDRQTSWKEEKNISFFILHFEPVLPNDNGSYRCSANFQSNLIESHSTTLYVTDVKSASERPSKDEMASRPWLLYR

As to NC, the percent of cells in the gate in the assay with canine PD-1 (canine) [1] amounted to 0.068%; with human BTLA (human) [2], 1.2%; with canine PD-1 (canine) [3] it was 0.273%; with human BTLA (human) [4] it was 0.841%; in the assay with canine PD-1 (canine) [5] it was 0.155%; with human BTLA (human) [6], 0.406%.
